# PMC9278655
# How the values were obtained:
# [1] = biological target: Crimson; test: SEC; HPLC (LC-20A), Superdex 200 10/300 GL; 200 uL of fluorescent protein loaded at 10 uM; 0.5 mL/min; 50 mM PBS pH 7
# [2] = biological target: mKate2; test: as above
Substance,stoichiometry N [1],stoichiometry N [2]
Crimson,2,
mKate2,,2
